This note sets out measurements from article PMC10991328, “A distal enhancer guides the negative selection of toxic glycoalkaloids during tomato domestication”.

For the data set, the target named is MYC2-GST (Solanum lycopersicum (MicroTom), UniProt A0A3Q7HRZ6 1-689). In words: EMSA; strong binding; 20-40 ng protein; EMSA: 10 mM Tris-HCl pH 7.2, 50 mM KCl, 1 mM DTT, 2.5% glycerol, 0.05% NP-40, 50 ng/uL poly(dI-dC), room temperature, 20 min; pull-down: 10 mM HEPES pH 7.9, 100 mM KCl, 5 mM MgCl2, 10% glycerol, 1 mM DTT, 0.5% NP-40, 4 C overnight. As to conditions: protein: recombinant; tags: GST (pGEX-4T-1); chain copies: 2; label: 3'-biotin; blunt. On the technique in general: Mobility shift assays separate free from complexed probe on a gel.
Chain of MYC2-GST (A0A3Q7HRZ6 whole entry): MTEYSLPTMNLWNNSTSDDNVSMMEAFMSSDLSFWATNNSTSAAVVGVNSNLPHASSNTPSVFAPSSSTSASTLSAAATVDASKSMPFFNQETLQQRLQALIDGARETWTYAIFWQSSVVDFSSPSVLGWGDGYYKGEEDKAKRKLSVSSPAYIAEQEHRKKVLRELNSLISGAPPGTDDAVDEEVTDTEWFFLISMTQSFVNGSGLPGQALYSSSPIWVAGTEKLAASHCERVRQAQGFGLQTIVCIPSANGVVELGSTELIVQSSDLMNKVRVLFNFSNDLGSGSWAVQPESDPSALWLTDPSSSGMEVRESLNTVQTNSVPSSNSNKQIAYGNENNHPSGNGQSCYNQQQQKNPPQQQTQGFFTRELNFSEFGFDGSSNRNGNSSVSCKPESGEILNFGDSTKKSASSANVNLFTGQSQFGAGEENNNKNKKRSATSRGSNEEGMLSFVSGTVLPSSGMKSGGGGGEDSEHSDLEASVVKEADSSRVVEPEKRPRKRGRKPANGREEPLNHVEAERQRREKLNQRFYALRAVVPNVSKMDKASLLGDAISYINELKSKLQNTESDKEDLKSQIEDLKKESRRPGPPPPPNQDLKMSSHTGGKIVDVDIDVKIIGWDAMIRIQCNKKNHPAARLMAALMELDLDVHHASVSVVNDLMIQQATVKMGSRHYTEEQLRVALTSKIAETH

B1: GE1-1 probe (dsDNA)
DNA 1: ATGTATGTGTCTAATCAAACATCGGTGGCATAATTTTTTTTAGCATCAAA
DNA 2: TTTGATGCTAAAAAAAATTATGCCACCGATGTTTGATTAGACACATACAT
Take B1: the binding result is reported as “binds”.
